Laboratory results as given in patent US20240002531A1 (ONO PHARMACEUTICAL, published 2024).

Columns and labels:
[1] = biological target: T1, HER2 peptide p603-622 (amino acids 603 to 622 of human HER2) (human); assay: SPR Biacore, mAb on chip, peptide analyte, 1:1 fit;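 note: where kon or koff could not be resolved by kinetic fitting, Kd comes instead from steady-state equilibrium analysis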
T1 construct: Synthetic peptide; also called wild-type HER2 peptide
T1 peptide: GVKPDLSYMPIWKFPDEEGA

[2] = biological target: T2, G603A peptide (HER2 603-622 with G603A) (human); assay: SPR Biacore, mAb on chip, peptide analyte, 1:1 fit;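 note: where kon or koff could not be resolved by kinetic fitting, Kd comes instead from steady-state equilibrium analysis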
T2 peptide: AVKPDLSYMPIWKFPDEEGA

[3] = biological target: T3, K615A peptide (HER2 603-622 with K615A) (human); assay: SPR Biacore, mAb on chip, peptide analyte, 1:1 fit;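 note: where kon or koff could not be resolved by kinetic fitting, Kd comes instead from steady-state equilibrium analysis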
T3 peptide: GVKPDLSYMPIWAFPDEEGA

[4] = biological target: T4, F616A peptide (HER2 603-622 with F616A) (human); assay: SPR Biacore, mAb on chip, peptide analyte, 1:1 fit;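 note: where kon or koff could not be resolved by kinetic fitting, Kd comes instead from steady-state equilibrium analysis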
T4 peptide: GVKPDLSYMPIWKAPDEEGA

[5] = biological target: T5, G621A peptide (HER2 603-622 with G621A) (human); assay: SPR Biacore, mAb on chip, peptide analyte, 1:1 fit
T5 peptide: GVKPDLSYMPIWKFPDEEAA

HER2 peptide p614-619 = biological target: T6, HER2 peptide p614-619 (human); assay: SPR Biacore, mAb on chip, peptide analyte, 1:1 fit
T6 peptide: WKFPDE

HER2 peptide p613-619 = biological target: T7, HER2 peptide p613-619 (human); assay: SPR Biacore, mAb on chip, peptide analyte, 1:1 fit
T7 peptide: IWKFPDE

HER2 peptide p612-618 = biological target: T8, HER2 peptide p612-618 (human); assay: SPR Biacore, mAb on chip, peptide analyte, 1:1 fit
T8 construct: also called PIWKFPD
T8 peptide: PIWKFPD

HER2 peptide p612-620 = biological target: T9, HER2 peptide p612-620 (human); assay: SPR Biacore, mAb on chip, peptide analyte, 1:1 fit
T9 peptide: PIWKFPDEE

HER2 peptide p611-618 = biological target: T10, HER2 peptide p611-618 (human); assay: SPR Biacore, mAb on chip, peptide analyte, 1:1 fit
T10 peptide: MPIWKFPD

HER2 peptide p611-619 = biological target: T11, HER2 peptide p611-619 (human); assay: SPR Biacore, mAb on chip, peptide analyte, 1:1 fit
T11 peptide: MPIWKFPDE

HER2 peptide p610-618 = biological target: T12, HER2 peptide p610-618 (human); assay: SPR Biacore, mAb on chip, peptide analyte, 1:1 fit
T12 peptide: YMPIWKFPD

HER2 peptide p610-619 = biological target: T13, HER2 peptide p610-619 (human); assay: SPR Biacore, mAb on chip, peptide analyte, 1:1 fit
T13 peptide: YMPIWKFPDE

HER2 peptide p610-622 = biological target: T14, HER2 peptide p610-622 (human); assay: SPR Biacore, mAb on chip, peptide analyte, 1:1 fit
T14 peptide: YMPIWKFPDEEGA

HER2 peptide p609-619 = biological target: T15, HER2 peptide p609-619 (human); assay: SPR Biacore, mAb on chip, peptide analyte, 1:1 fit
T15 peptide: SYMPIWKFPDE

HER2 peptide p609-621 = biological target: T16, HER2 peptide p609-621 (human); assay: SPR Biacore, mAb on chip, peptide analyte, 1:1 fit
T16 peptide: SYMPIWKFPDEEG

HER2 peptide p609-622 = biological target: T17, HER2 peptide p609-622 (human); assay: SPR Biacore, mAb on chip, peptide analyte, 1:1 fit
T17 peptide: SYMPIWKFPDEEGA

[6] = biological target: T18, HER2-K615A expressed on CHO-K1 cells (human, UniProt P04626 23-1255); assay: flow cytometry on CHO-K1 cells expressing HER2-K615A
T18 construct: also called K615A point mutant; not shown: PA tag at the N terminus; RAP tag and MAP tag at the C terminus

HER2 peptide p614-620 = biological target: T19, HER2 peptide p614-620 (human); assay: SPR Biacore, mAb on chip, peptide analyte, equilibrium analysis
T19 peptide: WKFPDEE

HER2 peptide p614-621 = biological target: T20, HER2 peptide p614-621 (human); assay: as above
T20 peptide: WKFPDEEG

[7] = biological target: T21, W614A peptide (HER2 603-622 with W614A) (human); assay: SPR Biacore, mAb on chip, peptide analyte, equilibrium analysis (ka N.D.)
T21 peptide: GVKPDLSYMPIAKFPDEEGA

[8] = biological target: T22, I613A peptide (HER2 603-622 with I613A) (human); assay: SPR Biacore, mAb on chip, peptide analyte, equilibrium analysis
T22 construct: also called 1613A
T22 peptide: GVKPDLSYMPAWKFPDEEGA

[9] = biological target: T21, W614A peptide (HER2 603-622 with W614A); assay: as above
[10] = biological target: T3, K615A peptide (HER2 603-622 with K615A); assay: as above
[11] = biological target: T4, F616A peptide (HER2 603-622 with F616A); assay: as above

B1: H2Mab-250 antibody (antibody, V domains shown)
VH: EVQLVESGGGLVQPGGSLKLSCAASGFTFSNYGMSWVRQTPDRRLELVATINNNGGGTYYPDSVKGRFTISRDNAKNTLYLQMSSLKSEDTAMYYCTSPGLLWDAWGAGTTVTVSS
VL: not shown
notes: Mouse monoclonal from a hybridoma (immunogen HER2ec made in LN229 cells); also called antibody of the present invention
[1]
  Kd: 0.0058 µM
  koff: 0.00037 s⁻¹
  kon: 63900 M⁻¹ s⁻¹
[2]
  Kd: 0.00587 µM
  koff: 0.00043 s⁻¹
  kon: 73300 M⁻¹ s⁻¹
[3]
  Kd: 0.336 µM
  koff: 0.00963 s⁻¹
  kon: 28700 M⁻¹ s⁻¹
[4]
  Kd: 0.204 µM
  koff: 0.0108 s⁻¹
  kon: 52800 M⁻¹ s⁻¹
[5]
  Kd: 0.00691 µM
  koff: 0.000399 s⁻¹
  kon: 57800 M⁻¹ s⁻¹
HER2 peptide p614-619
  Kd: 1.38 µM
  koff: 0.00118 s⁻¹
  kon: 854 M⁻¹ s⁻¹
HER2 peptide p613-619
  Kd: 0.0103 µM
  koff: 0.0041 s⁻¹
  kon: 397000 M⁻¹ s⁻¹
HER2 peptide p612-618
  Kd: 0.00192 µM
  koff: 0.00057 s⁻¹
  kon: 296000 M⁻¹ s⁻¹
HER2 peptide p612-620
  Kd: 0.00439 µM
  koff: 0.000756 s⁻¹
  kon: 172000 M⁻¹ s⁻¹
HER2 peptide p611-618
  Kd: 0.000869 µM
  koff: 0.00031 s⁻¹
  kon: 356000 M⁻¹ s⁻¹
HER2 peptide p611-619
  Kd: 0.00202 µM
  koff: 0.000487 s⁻¹
  kon: 240000 M⁻¹ s⁻¹
HER2 peptide p610-618
  Kd: 0.000599 µM
  koff: 0.000225 s⁻¹
  kon: 376000 M⁻¹ s⁻¹
HER2 peptide p610-619
  Kd: 0.00119 µM
  koff: 0.00038 s⁻¹
  kon: 319000 M⁻¹ s⁻¹
HER2 peptide p610-622
  Kd: 0.00181 µM
  koff: 0.00033 s⁻¹
  kon: 183000 M⁻¹ s⁻¹
HER2 peptide p609-619
  Kd: 0.0012 µM
  koff: 0.000293 s⁻¹
  kon: 244000 M⁻¹ s⁻¹
HER2 peptide p609-621
  Kd: 0.00117 µM
  koff: 0.000289 s⁻¹
  kon: 247000 M⁻¹ s⁻¹
HER2 peptide p609-622
  Kd: 0.00157 µM
  koff: 0.00033 s⁻¹
  kon: 210000 M⁻¹ s⁻¹
[6]
  binding result: binds
HER2 peptide p614-620
  Kd: 26.4 µM
HER2 peptide p614-621
  Kd: 26.6 µM
[7]
  Kd: 1050 µM

B2: H2Mab-214 antibody (antibody, V domains shown)
VH: QVTLKESGPGILQPSQTLSLTCSFSGFSLSTSGMGVSWIRQPSGKGLEWLAHIFWDDDKRYNPSLKSRLTISKDTSRNKVFLKITSVDTADTATYYCARRVVATDWYFDVWGAGTTVTVSS
VL: DIVLTQSPASLAVSLGQRATISCRASESVEYYGTTLMQWYQQKPGQPPKLLIYAASKVESGVPARFSGSGSGTDFSLNIHPVEEDDVAMYFCQQSRKVPLTFGAGTKLELKR
notes: as for B1
[8]
  Kd: 39.3 µM
[9]
  Kd: 1.46 µM
[10]
  Kd: 578 µM
[11]
  Kd: 410 µM
